# Assay results taken from US20240116985A1 (published 2024).
# Starred links: 1 amine or outer side, 2 acyl side, 3 side chain; linkers in the order of their positions; H or OH if unused. Positions of bridges follow the written chain, without caps; N, C: chain ends. Non-standard residues stand in square brackets, D forms with d. Primed or numbered codes have the meaning given here. ξ: configuration not given here. PyrS2″ = (S)-3-amino-1-((pent-4-en-1-yloxy)carbonyl)pyrrolidine-3-carboxylic acid (stapling residue), C=CCCCOC(=O)N1CC[C@@](N[*:1])(C(=O)[*:2])C1; B5(16) = 2-amino-2-(pent-4-en-1-yl)hept-6-enoic acid = 2,2-bis(4-pentenyl)glycine (stitching residue), C=CCCCC(CCCC=C)(N[*:1])C(=O)[*:2]; B5(4) = 2,2-bis(4-pentenyl)glycine = 2-amino-2-(pent-4-en-1-yl)hept-6-enoic acid (stitching residue), C=CCCCC(CCCC=C)(N[*:1])C(=O)[*:2]; TfeGA = (S)-2-amino-3-((carboxymethyl)(2,2,2-trifluoroethyl)amino)propanoic acid, O=C([C@H](CN(CC(=O)[*:3])CC(F)(F)F)N[*:1])[*:2]; PyrS2 = (S)-3-amino-1-((pent-4-en-1-yloxy)carbonyl)pyrrolidine-3-carboxylic acid, C=CCCCOC(=O)N1CC[C@@](N[*:1])(C(=O)[*:2])C1; B5 = 2-amino-2-(pent-4-en-1-yl)hept-6-enoic acid, C=CCCCC(CCCC=C)(N[*:1])C(=O)[*:2]; Phe(2-Cl) = N[C@@H](Cc1ccccc1Cl)C(=O)O; Bta = N[C@@H](Cc1csc2ccccc12)C(=O)O; αAllylPro = C=CC[C@@]1(C(=O)O)CCCN1; tBuAla = CC(C)(C)C[C@H](N)C(=O)O; 3Thi = N[C@@H](Cc1ccsc1)C(=O)O; Cha = N[C@@H](CC1CCCCC1)C(=O)O; S8 = C=CCCCCCC[C@](C)(N)C(=O)O; ξβ3hD = NC(CC(=O)O)CC(=O)O
# T1: B-cat-Halo (beta-catenin HaloTag construct expressed in HEK293 cells) (UniProt P35222 1-781)
# T1 sequence (looked up): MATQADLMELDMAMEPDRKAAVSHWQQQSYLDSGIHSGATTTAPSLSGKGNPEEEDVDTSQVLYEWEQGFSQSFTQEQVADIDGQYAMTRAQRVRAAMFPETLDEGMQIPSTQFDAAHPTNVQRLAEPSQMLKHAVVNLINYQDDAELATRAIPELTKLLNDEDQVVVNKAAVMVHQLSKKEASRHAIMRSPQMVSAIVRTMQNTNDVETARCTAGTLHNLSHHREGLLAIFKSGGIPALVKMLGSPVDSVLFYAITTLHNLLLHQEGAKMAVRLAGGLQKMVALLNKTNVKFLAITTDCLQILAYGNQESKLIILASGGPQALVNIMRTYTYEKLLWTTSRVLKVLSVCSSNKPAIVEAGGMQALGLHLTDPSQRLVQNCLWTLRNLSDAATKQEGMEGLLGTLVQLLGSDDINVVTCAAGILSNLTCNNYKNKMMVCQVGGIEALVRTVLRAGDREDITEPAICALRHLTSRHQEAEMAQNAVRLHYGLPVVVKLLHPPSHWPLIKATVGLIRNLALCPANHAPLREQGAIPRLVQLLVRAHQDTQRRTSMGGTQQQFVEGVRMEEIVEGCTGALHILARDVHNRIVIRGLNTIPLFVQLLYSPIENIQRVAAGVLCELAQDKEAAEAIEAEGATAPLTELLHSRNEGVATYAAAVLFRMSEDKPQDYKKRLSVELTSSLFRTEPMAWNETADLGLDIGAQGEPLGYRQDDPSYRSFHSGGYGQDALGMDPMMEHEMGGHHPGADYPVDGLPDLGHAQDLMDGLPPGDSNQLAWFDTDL
# T2: Bcat-Halo (UniProt P35222 1-781, HaloTag NanoBRET 618 Ligand bound in the assay)
# T2 construct: Expressed by transfection in HEK293 cells; also called beta-catenin HaloTag NanoBRET construct; not shown: HaloTag
# T2 sequence (looked up): T1 sequence (looked up)
# T3: full-length beta-Catenin (Uniprot ID P35222) (Homo sapiens (Human), UniProt P35222 2-781)
# T3 construct: The assay protocols say only 'full-length'; No tag is stated, although the AlphaScreen kit is a Histidine (Nickel Chelate) kit; also called B-Catenin; bCat
# T3 sequence: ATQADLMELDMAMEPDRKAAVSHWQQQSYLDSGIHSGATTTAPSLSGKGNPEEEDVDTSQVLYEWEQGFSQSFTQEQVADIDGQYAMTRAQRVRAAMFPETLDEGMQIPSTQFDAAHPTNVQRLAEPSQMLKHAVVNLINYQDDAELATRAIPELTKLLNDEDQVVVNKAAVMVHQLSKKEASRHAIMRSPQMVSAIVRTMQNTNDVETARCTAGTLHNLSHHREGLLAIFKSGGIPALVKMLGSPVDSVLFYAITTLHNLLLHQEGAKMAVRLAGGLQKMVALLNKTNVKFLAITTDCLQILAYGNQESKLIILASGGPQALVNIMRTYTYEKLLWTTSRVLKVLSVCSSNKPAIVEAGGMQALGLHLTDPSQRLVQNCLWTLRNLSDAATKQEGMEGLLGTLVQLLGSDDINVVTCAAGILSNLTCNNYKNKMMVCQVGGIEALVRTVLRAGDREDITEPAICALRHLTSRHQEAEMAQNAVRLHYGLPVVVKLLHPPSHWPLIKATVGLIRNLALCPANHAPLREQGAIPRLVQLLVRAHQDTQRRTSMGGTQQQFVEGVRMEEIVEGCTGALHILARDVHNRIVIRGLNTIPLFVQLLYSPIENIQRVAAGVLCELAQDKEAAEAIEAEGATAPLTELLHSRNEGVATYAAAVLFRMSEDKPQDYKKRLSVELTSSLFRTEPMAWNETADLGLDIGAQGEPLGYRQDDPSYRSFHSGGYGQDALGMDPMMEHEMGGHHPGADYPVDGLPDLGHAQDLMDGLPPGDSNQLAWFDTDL
# T4: full-length beta-Catenin (Uniprot ID P35222) (Homo sapiens (Human), UniProt P35222 2-781)
# T4 construct: also called bCat; B-Catenin
# T4 sequence: T3 sequence
# B1: I-1167 (peptide)
# peptide: Ac-[αAllylPro]D[tBuAla][B5(4)]DTAAFL[PyrS2″][3Thi][Bta]Q-NH2
# modifications: staple 1-4, 4-11
# B2: I-1170 (peptide)
# peptide: Ac-[αAllylPro]D[tBuAla][B5(4)]DTAAFT[PyrS2″][3Thi][Bta]S-NH2
# modifications: staple 1-4, 4-11
# B3: I-1166 (peptide)
# peptide: Ac-[αAllylPro]D[tBuAla][B5(4)]DTAAFT[PyrS2″][3Thi][Bta]Q-NH2
# modifications: staple 1-4, 4-11
# B4: I-1161 (peptide)
# peptide: Ac-[αAllylPro][ξβ3hD][tBuAla][B5(4)]D[TfeGA]AAFN[PyrS2″][3Thi][Bta]Q-NH2
# modifications: staple 1-4, 4-11
# B5: I-1173 (peptide)
# peptide: Ac-[αAllylPro]D[Cha][B5(4)]DTAAFT[PyrS2″][3Thi][Bta]Q-NH2
# modifications: staple 1-4, 4-11
# B6: I-1156 (peptide)
# peptide: Ac-[αAllylPro]DF[B5(4)]DDLAFT[PyrS2″][Phe(2-Cl)][Bta]S-NH2
# modifications: staple 1-4, 4-11
# notes: Stapled (stitched) peptide composition; olefin isomer not specified
# B7: I-1153 (peptide)
# peptide: Ac-[αAllylPro]DF[B5(16)]DDLAFS[PyrS2″][Phe(2-Cl)][Bta]Q-NH2
# modifications: staple 1-4, 4-11
# notes: as for B6
# B8: I-1142 (peptide)
# peptide: Ac-[αAllylPro]DF[B5]DDAAFS[PyrS2][Phe(2-Cl)][Bta][dT]-NH2
# modifications: staple 1-4, 4-11
# notes: as for B6
# B9: I-1157 (peptide)
# peptide: Ac-[αAllylPro]DF[B5(4)]DDALFT[PyrS2″][Phe(2-Cl)][Bta]S-NH2
# modifications: staple 1-4, 4-11
# notes: as for B6
# B10: I-352 (peptide)
# peptide: Ac-[αAllylPro]DA[B5(16)]DAAAFV[S8]FWQ-NH2
# modifications: staple 1-4, 4-11
# notes: Stapled peptide composition; also called Ac-PL3-Asp-Ala-B5-Asp-Ala-Ala-Ala-Phe-Val-S8-Phe-Trp-Gln-NH2
# B11: I-349 (peptide)
# peptide: XAAXDDAAFVXFWQ
# modifications: not fully specified; N-terminal Ac; C-terminal NH2; PL3 at 1, B5 at 4, S8 at 11 (stapled 1-4 and 4-11)
# notes: Stapled peptide composition; Later-eluting isomer composition; also called Ac-PL3-Ala-Ala-B5-Asp-Asp-Ala-Ala-Phe-Val-S8-Phe-Trp-Gln-NH2
# B12: I-351 (peptide)
# peptide: XDAXADAAFVXFWQ
# modifications: not fully specified; N-terminal Ac; C-terminal NH2; PL3 at 1, B5 at 4, S8 at 11 (stapled 1-4 and 4-11)
# notes: Stapled peptide composition; Later-eluting isomer composition; also called Ac-PL3-Asp-Ala-B5-Ala-Asp-Ala-Ala-Phe-Val-S8-Phe-Trp-Gln-NH2
# B13: I-348 (peptide)
# peptide: XAAXDDAAFVXFWQ
# modifications: not fully specified; N-terminal Ac; C-terminal NH2; PL3 at 1, B5 at 4, S8 at 11 (stapled 1-4 and 4-11)
# notes: Stapled peptide composition; Earlier-eluting isomer composition; also called Ac-PL3-Ala-Ala-B5-Asp-Asp-Ala-Ala-Phe-Val-S8-Phe-Trp-Gln-NH2
# Target: T1, B-cat-Halo (beta-catenin HaloTag …)
# Assay: cell-based or functional assay
row,Binder,NanoBRET Abs IC50 [µM]
1,B1,11.7
2,B2,13.5
3,B3,14.6
4,B4,> 20
5,B5,17.2

# Target: T2, Bcat-Halo
# Assay: NanoBRET Abs IC50 in HEK293 cells; competitor TCF4-Luc on Bcat-Halo
row,Binder,IC50 [µM]
1,B6,26.1
2,B7,> 20
3,B8,> 20
4,B9,> 20

# Target: T3, full-length beta-Catenin (Uniprot ID …)
# Assay: AlphaScreen competition; peptide titrated against full-length beta-catenin + biotin-TCF4(10-53)
# Procedure: Equal volume of the titrated peptide was added to the plate and incubated for 15 minutes at 20° C. Then 4 uL of donor and 4 uL acceptor beads at 10 ug/mL were added to the plate, for a 16 uL reaction pool and protected from light for 60 minutes at 20° C. prior to read. Reads were performed on a CLARIOstar plate reader (BMG Labtech) in duplicate, and data were fitted to a 1:1 binding model with hill slope using an in-house script. All provided concentrations are final concentrations.
row,Binder,EC50 [µM]
1,B10,0.377
2,B11,7.19
3,B12,10
4,B13,10

# Target: T4, full-length beta-Catenin (Uniprot ID …)
# Assay: fluorescence polarization competition vs 5FAM-TCF4(10-53) on full-length beta-catenin
# Method in brief: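 Incubate 60 minutes at 20° C. away from light, then read polarization in duplicate. Fit to 1:1 binding with hill slope.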
row,Binder,IC50 [µM]
1,B6,0.014
2,B7,0.012
3,B8,0.022
4,B9,0.036
